From US20060149521A1 (University of California, published 2006)
Numbering of substitutions follows the chain as printed.

Tests used:
hTRβ1 E457K, full-length = target: T1, hTRβ1 E457K, full-length (human, UniProt P10828 1-461, [35S]-Met labelled (in vitro translated)); assay: GST-GRIP1 pull-down of [35S]-hTRβ1 with T3
T1 construct: range 1-461
T1 sequence (looked up): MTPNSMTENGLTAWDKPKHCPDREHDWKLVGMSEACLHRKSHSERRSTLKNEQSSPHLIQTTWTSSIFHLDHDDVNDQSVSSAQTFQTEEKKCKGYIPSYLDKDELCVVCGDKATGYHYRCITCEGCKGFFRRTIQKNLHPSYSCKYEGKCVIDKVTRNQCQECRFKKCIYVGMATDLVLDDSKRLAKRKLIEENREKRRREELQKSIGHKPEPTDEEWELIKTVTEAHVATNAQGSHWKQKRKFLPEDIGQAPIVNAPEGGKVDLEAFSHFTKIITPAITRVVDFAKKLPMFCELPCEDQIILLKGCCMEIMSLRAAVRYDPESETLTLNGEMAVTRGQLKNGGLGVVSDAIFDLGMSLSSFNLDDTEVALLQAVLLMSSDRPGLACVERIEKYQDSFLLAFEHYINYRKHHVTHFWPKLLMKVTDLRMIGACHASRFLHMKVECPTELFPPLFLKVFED

hTRβ1 L454R, full-length = target: T2, hTRβ1 L454R, full-length (human, UniProt P10828 1-461, [35S]-Met labelled (in vitro translated)); assay: GST-GRIP1 pull-down of [35S]-hTRβ1 with T3
T2 construct: range 1-461
T2 sequence (looked up): T1 sequence (looked up) with L454R, K457E

B1: GST-GRIP1 (GRIP1 amino acids 721-1121) (other, mouse, UniProt Q61026 721-1121, looked up)
chain: STAPGSEVTVKQEPASPKKKENALLRYLLDKDDTKDIGLPEITPKLERLDSKTDPASNTKLIAMKTVKEEVSFEPSDQPGSELDNLEEILDDLQNSQLPQLFPDTRPGAPTGSVDKQAIINDLMQLTADSSPVPPAGAQKAALRMSQSTFNNPRPGQLGRLLPNQNLPLDITLQSPTGAGPFPPIRNSSPYSVIPQPGMMGNQGMLGSQGNLGNNSTGMIGSSTSRPSMPSGEWAPQSPAVRVTCAATTGAMNRPVQGGMIRNPTASIPMRANSQPGQRQMLQSQVMNIGPSELEMNMGGPQYNQQQAPPNQTAPWPESILPIDQASFASQNRQPFGSSPDDLLCPHPAAESPSDEGALLDQLYLALRNFDGLEEIDRALGIPELVSQSQAVDAEQFSSQE
notes: not shown: glutathione-S-transferase (GST) from the pGEX vector
hTRβ1 E457K, full-length
  binding result: no binding
hTRβ1 L454R, full-length
  binding result: no binding
